Experimental data reported in the supplement of paper PMC12042874.
± gives the uncertainty stated by the source.

Assay: amyloid nucleation score (Sup35N fusion, yeast selection) (log enrichment); library NNK1; higher = more nucleation; inactive = no reads after selection
Outline: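 On medium lacking adenine and uracil, psi-negative yeast expressing peptides of 20 random codons fused to Sup35N were grown 7 days at 30°C after a 24-hour induction with 100 μM copper sulfate. Illumina sequencing of input and output plasmid inserts gave the reads, and sequences under 100 input reads were excluded. The nucleation score is the DiMSum log enrichment of output over input reads, centred on the mode score of non-aggregating sequences.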

Substance | amyloid nucleation score
HGSIQSV | inactive
TASCVIMELPVGTNDKYVWT | 0.296 ± 0.5
YARGMCWVRVWLNVQVSAWS | 0.398 ± 0.53
EMAFISYH | 0.4 ± 1.1
NLWLPAWCGLYQCNTGHSGY | 7.996 ± 0.043
RNCNNVYFELSVLASFLRVR | 8.107 ± 0.05
RMAKYNFVIISVTDDVRQKC | 2.42 ± 0.14
ECVKTVTLVNYRVLRWSSVC | 0.129 ± 0.35
ILFDSHANFVGMSCQYRSGR | 5.72 ± 0.1
IYSNEELIMRVVNQY | 0.856 ± 0.58
VSRNIWYRWGNLLAVVKM | -0.025 ± 0.57
RSQPLGADVVKLPASRLGRL | -1.11 ± 0.94
KANACGRFTN | 3.72 ± 0.1
YAINMVYYV | 1.16 ± 0.29
GWRSGVWLGSV | -1.32 ± 0.77
CHLTMIMNLVIMMAWNPLHC | 0.765 ± 0.47
DVYVACTSFDLELCICVMRL | 0.237 ± 0.7
YVYNFMYTVNCMVEPFWLEC | 7.12 ± 0.048
ASLAMISRMYSSYLDGMVFS | -0.412 ± 0.91
GHHLSVWRSNSCSCVWSITD | -0.184 ± 0.4
SDQNWMVPQDGPSPTSYLDD | -0.102 ± 1.5
DSAIWDKNFSLDMGSGFMHC | -0.125 ± 1.7

Substance | amyloid nucleation score
FGSLRHCFTFNCNPGMGVWV | 2.53 ± 0.16
SNSGIKGFGGMIPRV | 3.92 ± 0.1
SVPAHFNRYMCNRGYCRFRR | inactive
YINTGVLYFGFCGL | 7.117 ± 0.06
SHTYG | 0.06 ± 0.59
IMPSCKLLAAHVADYVFLMR | 0.863 ± 0.84
CMIIRVGGRQGIHYSFSRMD | -0.652 ± 0.26
TPFVMIKDGKADFVILNVYH | 7.077 ± 0.055
SAICRYVF | 0.768 ± 0.66
FFYSNALLWSWIVGYSCTRL | 0.537 ± 0.44
MNDVNLFMEYNKSFYVDFYM | 1.61 ± 0.15
SIYDARRMVRVHTFHEGLL | -0.577 ± 1.4
GRSFYNCPPLRIHCLCIMEV | 0.557 ± 0.68
MMYSIVRMLAFNAWSMR | 0.681 ± 0.49
YLDRSRLMIKCHVHVKYVYY | 7.92 ± 0.048
FCFILSNVFLGLWMI | -1.37 ± 2.7
WLIQE | 1.24 ± 0.71
VENTPSCSDISSDLMGREIH | -0.87 ± 0.35
EHRLR | 0.477 ± 0.59
IFVALRRD | -1.29 ± 1.3
WRILYRC | 0.41 ± 0.34
INIGFMKGV | 0.416 ± 0.61

Substance | amyloid nucleation score
RIYTTWGHYDNDHQIYLFRG | -0.601 ± 0.36
MVSSCWICRALKAYVLQPWV | 0.108 ± 0.72
YHIRVAWQFVGADI | -0.535 ± 1
GSELGIKRTLSLFICLWIIG | -0.731 ± 0.36
VYVVGLFQLVSITFLCRITV | 0.153 ± 0.22
YATDCLLVSFGTSGECIHRL | inactive
TYDGSKAIVALSKGNKN | 0.915 ± 0.51
PFCSGALLARLG | 0.047 ± 0.77
RTPVLSCWWFEYMELRGQST | -0.412 ± 1.7
YLDGTNSMNAEGNLLNKAPV | 0.189 ± 0.31
GSNDPSVLTAVVLMLLKHRG | 2.04 ± 0.35
ADYTQCRLYVM | -0.132 ± 0.21
MLHYAWVGLSVNDMVLPEMC | -0.78 ± 0.67
VHVFSCLCPLLGSMIFLWMV | -0.871 ± 0.68
FLRVILRVYLAVLRGNRQCN | -0.716 ± 0.36
ITVST | -0.134 ± 1.4
VEWASRDTHWRSLSLIIYLG | inactive
CGFDRMAMYWVNFDLHWSSA | 0.121 ± 0.36
YKLKFIRGACHSS | 0.9 ± 0.63
VVEIWR | 0.655 ± 0.6
LRHFCGTFAAVTRKRVYPLS | -0.95 ± 2.7
GETLEVWFFRRRVIRWR | inactive

Substance | amyloid nucleation score
VRFFAPPWTWWLC | 0.087 ± 0.44
LYSLATIDNYMPWCQGSSGS | inactive
CDWSCSDSVCFITLCKYDDC | 6.921 ± 0.047
RYDSVFVIS | -0.129 ± 1.2
LGCLQLITSERGPDYYKVAT | 0.218 ± 0.41
TFRRFGYTELYCGENSLLEC | -0.036 ± 0.84
NTIRFAHLLV | -0.318 ± 0.35
LCDLWQHFSSSNVTGGLRRN | 0.966 ± 0.54
SAKGIME | 1.03 ± 0.45
DLFYYLRRLITRTWFM | 1.05 ± 0.27
MRQAGACNLRQSHVEQVCQQ | 0.135 ± 0.38
GNVIGGNMVVQWYSFCTVCV | 6.342 ± 0.062
RLDYFLCITYMIDQDRWRIT | -0.254 ± 1.1
VFGVPVTCGGRPVFLIKVVG | -0.794 ± 1.4
APGDWLLSDASAAVGEMVE | 0.778 ± 0.81
SWFNISAVLENMGRYS | 0.26 ± 0.44
LIWSMEALYFMDLLGG | inactive
RMQRNRGYPKVLLDMN | -0.472 ± 0.46
MQSLRLTESSGPFSLYFAFI | -0.227 ± 0.81
LPLICRSSGLLV | -0.405 ± 1.6
KCYIVSLNNVGCFTNASS | 5.13 ± 0.072
